Laboratory results reported in EP2450379B1.

Key:
[1] = molecular target: full-length HA from isolate A/Vietnam/1194/2004 (H5N1TV) expressed on PER.C6 cells (influenza A virus A/Vietnam/1194/2004 (H5N1)) (UniProt Q80A26); experiment: FACS on HA (H5N1TV)-expressing PER.C6 cells, IgG 1 µg/ml, separate experiment
[2] = molecular target: full-length HA from isolate A/Vietnam/1194/2004 (H5N1TV) expressed on PER.C6 cells (influenza A virus A/Vietnam/1194/2004 (H5N1)) (UniProt Q80A26); experiment: FACS on HA (H5N1TV)-expressing PER.C6 cells, IgG 0.1 µg/ml
[3] = molecular target: full-length HA from isolate A/Vietnam/1194/2004 (H5N1TV) expressed on PER.C6 cells (influenza A virus A/Vietnam/1194/2004 (H5N1)) (UniProt Q80A26); experiment: FACS on HA (H5N1TV)-expressing PER.C6 cells, IgG 1 µg/ml
[4] = molecular target: full-length HA from isolate A/Vietnam/1194/2004 (H5N1TV) expressed on PER.C6 cells (influenza A virus A/Vietnam/1194/2004 (H5N1)) (UniProt Q80A26); experiment: FACS on HA (H5N1TV)-expressing PER.C6 cells, IgG 10 µg/ml, separate experiment
[5] = molecular target: full-length HA from isolate A/Vietnam/1194/2004 (H5N1TV) expressed on PER.C6 cells (influenza A virus A/Vietnam/1194/2004 (H5N1)) (UniProt Q80A26); experiment: FACS on HA (H5N1TV)-expressing PER.C6 cells, IgG 0.1 µg/ml, separate experiment
[6] = molecular target: recombinant HA, subtype H9 (A/Hong Kong/1073/99 (H9N2)) (influenza A virus A/Hong Kong/1073/99 (H9N2)); experiment: ELISA, IgG 5 µg/ml
[7] = molecular target: recombinant HA, subtype H5 (A/Vietnam/1203/2004 (H5N1)) (influenza A virus A/Vietnam/1203/2004 (H5N1)) (UniProt Q80A26); experiment: ELISA, IgG 5 µg/ml
[8] = molecular target: recombinant HA, subtype H7 (A/Netherlands/219/03 (H7N7)) (influenza A virus A/Netherlands/219/03 (H7N7)); experiment: ELISA, IgG 5 µg/ml
[9] = molecular target: recombinant HA, subtype H1 (A/New Caledonia/20/99 (H1N1)) (influenza A virus A/New Caledonia/20/99 (H1N1)) (UniProt Q289M7); experiment: ELISA, IgG 5 µg/ml
[10] = molecular target: recombinant HA, subtype H3 (A/Wyoming/3/2003(H3N2)) (influenza A virus A/Wyoming/3/2003 (H3N2)); experiment: ELISA, IgG 5 µg/ml
[11] = molecular target: full-length HA from isolate A/Vietnam/1194/2004 (H5N1TV) expressed on PER.C6 cells (influenza A virus A/Vietnam/1194/2004 (H5N1)) (UniProt Q80A26); experiment: FACS on HA (H5N1TV)-expressing PER.C6 cells, IgG 10 µg/ml

Row | Substance | flow cytometry signal [1] | flow cytometry signal [2] | flow cytometry signal [3] | flow cytometry signal [4] | flow cytometry signal [5] | OD 492nm [6] | OD 492nm [7] | OD 492nm [8] | OD 492nm [9] | OD 492nm [10] | flow cytometry signal [11]
1 | CR3014 (antibody) | 7.95 | 6.21 | 10 | 9.15 | 10.5 | 0.16 OD 492nm | 0.09 OD 492nm | 0.17 OD 492nm | 0.08 OD 492nm | 0.07 OD 492nm | 13.1
2 | CR6261 (antibody) |  |  |  |  |  |  | 1.44 OD 492nm | 0.31 OD 492nm |  | 0.07 OD 492nm | 
